Molecular target: ZNF191 (zinc finger protein 191) (UniProt P17028 1-368)
Assay: EMSA; LightShift Chemiluminescent EMSA kit (Pierce); buffer, salt, pH and temperature not given; unlabeled oligonucleotides used for competition, outcome not given
Conditions: protein: recombinant; label: 5' biotin; blunt

Sequence of ZNF191 (zinc finger protein 191) (P17028 whole entry): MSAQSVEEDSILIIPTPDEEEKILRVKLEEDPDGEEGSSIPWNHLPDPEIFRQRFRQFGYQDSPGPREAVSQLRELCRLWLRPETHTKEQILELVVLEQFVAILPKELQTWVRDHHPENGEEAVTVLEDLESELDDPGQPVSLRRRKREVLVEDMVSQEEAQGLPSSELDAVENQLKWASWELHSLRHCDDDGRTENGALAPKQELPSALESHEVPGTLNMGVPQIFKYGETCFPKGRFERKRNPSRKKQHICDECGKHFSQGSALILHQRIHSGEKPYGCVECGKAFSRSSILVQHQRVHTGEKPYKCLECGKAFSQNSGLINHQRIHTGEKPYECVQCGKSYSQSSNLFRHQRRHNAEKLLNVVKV

B1: DNMT1(nt-240) EMSA probe, 30 bp (dsDNA)
DNA 1: CCTGAAAGAATGAATGAATGAATGCCTCGG
DNA 2: CCGAGGCATTCATTCATTCATTCTTTCAGG
B1: binds.

B2: Mut-DNMT1(nt-240) EMSA probe, 30 bp (dsDNA)
DNA 1: CCTGAAAGTTTGTTTGTTTGTTTGCCTCGG
DNA 2: CCGAGGCAAACAAACAAACAAACTTTCAGG
B2: no binding.

From publication PMC8894703, “ZNF191 alters DNA methylation and activates the PI3K‐AKT pathway in hepatoma cells via transcriptional regulation of DNMT1”
